For 1 substance, stoichiometry N results are on record in publication PMC7605111.

Several values for one entry are separate records, joined by “and”; a condition that tells them apart may be missing. Identical values can stand only once.

Assay [1] addresses class II fructose-1,6-bisphosphatase from Francisella tularensis (Francisella tularensis). The assay can be described thus: SEC. (In general: Size exclusion chromatography separates by hydrodynamic size, large species first.)
The target is the same in assay [2]. Put plainly: crystal structure.

As usually defined, the stoichiometry N is a count of units in the complex or per binding partner. Consider “class II fructose-1,6-bisphosphatase from Francisella tularensis (enzyme)”, for which the stoichiometry N was 2 and 4 in assay [1]; 4 in assay [2].
